Experimental data: article doi:10.1101/2020.04.25.060004

Biological target: insulin (human, UniProt P01308;P01308 25-54;90-110)
Test: bead-based flow cytometry

insulin, sequence (P01308 25-54, chain 1 of 2): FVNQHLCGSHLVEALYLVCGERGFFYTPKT
insulin, sequence (P01308 90-110, chain 2 of 2): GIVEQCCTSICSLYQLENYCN

GGTGGTGGGGGGGGTTGGTAGGGTGTCTTC (ssDNA) [IGA3 bt]
Kd: 12.7 ± 1.1 µM
